From patent US20240141061A1, “NOVEL ANTIBODY AGAINST CD55 AND USE THEREOF” (SG MEDICAL INC, priority 2021, published 2024)
Where a chain is given by its changes, count along the chain named. Names and notes keep the numbering of the source.

B1: 3R-2-1H (antibody, V domains shown)
VH: EVQLVESGGGLVQPGGSLRLSCVARGFTFSDRGMAWVRQAPGKGLEWVSGISSSGRYTYYAPAVKGRTTISRDNSKNTLYLQMNSLRAEDTAVYYCAKNAVAGGWHAAYIDAWGQGTTVTVSS
VL: SYELTQPPSVSVSPGQTASITCSGGGGSYGWYQQKPGQSPVTVIYWNDKRPSGIPERFSGSKSGNTATLTISGTQAMDEADYYCGGWDSSTYAIFGGGTKLTVL
notes: Tested as full-length IgG
B2: 10H(A) (antibody, V domains shown)
VH: B1 VH with V23A, R25S, T68A, V101A
VL: B1 VL
B3: 10H(I) (antibody, V domains shown)
VH: B1 VH with V23A, R25S, T68A, V101I
VL: B1 VL
B4: EP-1E (antibody, V domains shown)
VH: B1 VH with V23A, R25S, T68A
VL: B1 VL with Y32F, D48N
notes: Tested as full-length IgG
B5: EP-1F (antibody, V domains shown)
VH: B1 VH with V5A, V23A, R25S, T68A
VL: B1 VL
notes: Tested as full-length IgG
B6: EP-9B (antibody, V domains shown)
VH: B1 VH with V23A, R25S, A35V, A40S, T68A, S85N
VL: B1 VL
notes: Tested as full-length IgG
B7: EP-10H scFv clone displayed on phage (scFv, V domains shown)
VH: B1 VH with V23A, R25S, T68A
VL: B1 VL
notes: In the screening ELISA it stood as scFv on phage (pComb3x)
B8: 3R-2-1H scFv clone displayed on phage (scFv, V domains shown)
VH: B1 VH
VL: B1 VL
notes: as for B7
B9: EP-1E scFv clone displayed on phage (scFv, V domains shown)
VH: B1 VH with V23A, R25S, T68A
VL: B1 VL with Y32F, D48N
notes: as for B7
B10: EP-1F scFv clone displayed on phage (scFv, V domains shown)
VH: B1 VH with V5A, V23A, R25S, T68A
VL: B1 VL
notes: as for B7
B11: EP-9B scFv clone displayed on phage (scFv, V domains shown)
VH: B1 VH with V23A, R25S, A35V, A40S, T68A, S85N
VL: B1 VL
notes: as for B7
B12: G4-1H: humanized 4-1H anti-CD55 antibody, VL SEQ ID NO 4, VH SEQ ID NO 5 (antibody, V domains shown)
VH: B1 VH with V23A, R25S, T68A, V101G
VL: B1 VL
modifications: G4-1H_VH; G4-1H_VL
B13: EP-1E: anti-CD55 antibody screened from G4-1H random mutation library, VL SEQ ID NO 18, VH SEQ ID NO 19 (antibody, V domains shown)
VH: B1 VH with V23A, R25S, T68A
VL: B1 VL with Y32F, D48N
modifications: EP-1E_VH; EP-1E_VL
B14: EP-1F: anti-CD55 antibody screened from G4-1H random mutation library, VL SEQ ID NO 4, VH SEQ ID NO 20 (antibody, V domains shown)
VH: B1 VH with V5A, V23A, R25S, T68A
VL: B1 VL
modifications: EP-1F_VH; G4-1H_VL
B15: 3R-2-1H: anti-CD55 antibody screened from G4-1H random mutation library, VL SEQ ID NO 4, VH SEQ ID NO 22 (antibody, V domains shown)
VH: B1 VH
VL: B1 VL
modifications: 3R-2-1H_VH; G4-1H_VL
B16: EP-9B: anti-CD55 antibody screened from G4-1H random mutation library, VL SEQ ID NO 4, VH SEQ ID NO 21 (antibody, V domains shown)
VH: B1 VH with V23A, R25S, A35V, A40S, T68A, S85N
VL: B1 VL
modifications: EP-9B_VH; G4-1H_VL
B17: 10H(L): EP-10H backbone with H100A site replaced with L, VH SEQ ID NO 27, EP-10H light chain (antibody, V domains shown)
VH: B1 VH with V5A, V23A, R25S, T68A, V101L
VL: B1 VL
B18: 10H(F): EP-10H backbone with H100A site replaced with F, VH SEQ ID NO 28, EP-10H light chain (antibody, V domains shown)
VH: B1 VH with V5A, V23A, R25S, T68A, V101F
VL: B1 VL
B19: 10H(M): EP-10H backbone with H100A site replaced with M, VH SEQ ID NO 29, EP-10H light chain (antibody, V domains shown)
VH: B1 VH with V5A, V23A, R25S, T68A, V101M
VL: B1 VL

What was measured:
[1] = molecular target: T1, recombinant human CD55 (R&D Systems 2009-CD/CF) (human, UniProt P08174 35-353); experiment: indirect ELISA, recombinant human CD55 coated
T1 construct: Bought recombinant protein coated on ELISA plates; also called decay-accelerating factor; DAF
T1 sequence (looked up): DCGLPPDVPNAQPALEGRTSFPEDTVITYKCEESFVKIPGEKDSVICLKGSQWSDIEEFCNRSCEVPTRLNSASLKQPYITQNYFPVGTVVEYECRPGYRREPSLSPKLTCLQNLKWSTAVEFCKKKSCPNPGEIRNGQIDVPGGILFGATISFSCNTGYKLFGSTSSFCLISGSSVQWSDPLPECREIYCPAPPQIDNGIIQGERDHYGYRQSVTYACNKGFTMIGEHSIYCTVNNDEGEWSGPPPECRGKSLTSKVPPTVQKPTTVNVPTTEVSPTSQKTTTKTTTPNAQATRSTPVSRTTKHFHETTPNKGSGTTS

recombinant human CD55 = molecular target: T2, recombinant human CD55 (Homo sapiens, UniProt P08174); experiment: Indirect ELISA, affinity for CD55; type: binding; settings: full-length antibody 0.0001-10 nM on CD55 coated at 1 μg/mL
T2 construct: purchased R&D Systems 2009-CD/CF
T2 sequence (P08174 35-353): T1 sequence (looked up)
Procedure: The binding ability of the G4-1H monoclonal antibody prepared in Example 2 for CD55 was investigated by indirect ELISA. For the indirect ELISA, recombinant human CD55 (R&D Systems, USA) diluted to 1 μg/mL in 50 μL of PBS was added to a 96-well immunoplate (Corning, USA) and then adsorbed by keeping at 4° C. overnight. After incubation for 1 hour at room temperature in a buffer containing 3% bovine serum albumin (Millipore, USA), followed by washing with a buffer containing 0.5% Tween 20 (Amresco, USA) three times, 50 μL of the serially diluted antibody (0.0001, 0.0003, 0.001, 0.003, 0.01, 0.03, 0.1, 0.3, 1, 3 and 10 nM) was treated per well. After incubation at room temperature for 2 hours for antibody-antigen binding, the antibody-antigen complex was washed three times with a buffer containing 0.5% Tween 20 (Amresco, USA). After treating with 50 μL of anti-human immunoglobulin Fc-HRP antibody (Jackson Immunoresearch, USA) diluted to 1:3,000 per well, followed by incubation at room temperature for 1 hour and washing three times with a buffer containing 0.5% Tween 20 (Amresco, USA), color development was conducted for 10 minutes by adding 50 μL of 3,3′,5,5′-tetramethylbenzidine (TMB) (ThermoFisher Scientific, USA).
The affinity of the antibodies screened in Example 6 for CD55 was investigated by indirect ELISA. The indirect ELISA was conducted in the same manner as in Example 3.
The affinity of the antibodies prepared in Example 8 for CD55 was investigated by indirect ELISA. The indirect ELISA was conducted in the same manner as in Example 3. […]

[2] = molecular target: T1, recombinant human CD55 (R&D Systems …); experiment: phage ELISA, recombinant human CD55 coated, anti-M13-HRP; 4-1H phage clone as control
Procedure: 192 clones screened from the products of the third and fourth biopanning were incubated overnight at 37° C. on a 96-deep well plate after adding 100 μg/mL carbenicillin, 70 μg/mL kanamycin and VCSM13 helper phage to induce the proliferation of phages wherein the antibody was expressed. After centrifuging the culture, the supernatant containing the phage was incubated at 37° C. for 2 hours on an ELISA plate coated with recombinant human CD55 (R&D Systems 2009-CD/CF, USA). Then, the antibody binding to CD55 was identified by ELISA using HRP-conjugated anti-M13 antibody (Merck, USA) as a secondary antibody.

Row | Molecule | binding result [1] | affinity for CD55 (indirect ELISA, absorbance at 450 nm) (recombinant human CD55) | binding result [2]
1 | B1 | binds | – | –
2 | B2 | binds | lower affinity than EP-10H | –
3 | B3 | binds | lower affinity than EP-10H | –
4 | B4 | binds | – | –
5 | B5 | binds | – | –
6 | B6 | binds | – | –
7 | B7 | – | – | binds
8 | B8 | – | – | binds
9 | B9 | – | – | binds
10 | B10 | – | – | binds
11 | B11 | – | – | binds
12 | B12 | – | lower affinity for CD55 than 4-1H | –
13 | B13 | – | comparable affinity | –
14 | B14 | – | comparable affinity | –
15 | B15 | – | comparable affinity | –
16 | B16 | – | affinity higher than that of 4-1H but lower than those of other antibodies | –
17 | B17 | – | lower affinity than EP-10H | –
18 | B18 | – | lower affinity than EP-10H | –
19 | B19 | – | lower affinity than EP-10H | –
